The values that follow come from patent publication US20240092872A1 (VIR BIOTECHNOLOGY, published 2024).

Experiment [1] has as its target T1, Human complement component C1q (human, UniProt P02745 23-245; P02746 28-253; P02747 29-245).
T1 construct: mature; also called purified human C1q
Description: BLI (Octet RED96); IgG captured through the Fab on anti-human Fab (CH1) sensors.
Description: IgG-loaded sensors were then exposed for 4 minutes to a solution of kinetics buffer (pH 7.1) containing 3 μg/ml of purified human C1q (left part of the plot), followed by a dissociation step in the same buffer for 4 additional minutes (right part of the plot). Association and dissociation profiles were measured in real time as change in the interference pattern using an Octet RED96 (FortéBio).

For experiment [2], the target named is T2, Recombinant human FcγRIIa (H131) (human, UniProt P12318 34-218).
T2 construct: also called FcγRIIa allele H131; His-tagged human FcγRIIa H131
T2 sequence: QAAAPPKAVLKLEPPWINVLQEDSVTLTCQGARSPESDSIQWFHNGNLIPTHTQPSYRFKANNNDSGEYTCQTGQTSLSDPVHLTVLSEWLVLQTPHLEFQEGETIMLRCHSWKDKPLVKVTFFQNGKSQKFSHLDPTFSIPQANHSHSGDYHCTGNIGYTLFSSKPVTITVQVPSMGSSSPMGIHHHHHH
Description: BLI (Octet RED96); His-tagged FcγR on anti-penta-His sensors, 2 µg/ml mAb cross-linked with anti-human F(ab')2.
Description: (§1) Briefly, His-tagged human FcγRs (FcγRIIa allele H131, FcγRIIa allele R131, FcγRIIAa allele F158, FcγRIIIa allele V158 and FcγRIIb) at 2 μg/ml were captured onto anti-penta-His sensors for 6 minutes. FcγR-loaded sensors were then exposed for 4 minutes to a solution of kinetics buffer (pH 7.1) containing 2 μg/ml of each mAb in the presence 1 μg/ml of affiniPure F(ab′)₂ Fragment Goat Anti-Human IgG, F(ab′)₂ fragment-specific (to cross-link human mAbs through the Fab fragment), followed by a dissociation step in the same buffer for 4 additional minutes (right part of the plot). Association and dissociation profiles were measured in real time as change in the interference pattern using an Octet RED96 (FortéBio).

The target in experiment [3] is T3, Recombinant human FcγRIIIa (V158) (human, UniProt P08637 17-208).
T3 construct: also called FcγRIIIa allele V158; His-tagged human FcγRIIIa V158
The description is as above.
Description: as §1

For experiment [4], the target named is T4, Recombinant human FcγRIIIa (F158) (human, UniProt P08637 17-208).
T4 construct: also called FcγRIIIa allele F158; His-tagged human FcγRIIIa F158
Described as above.
Description: as §1

In experiment [5] the target is T5, His-tagged human FcγRIIa allele R131 (human, UniProt P12318 34-218).
T5 construct: also called FcγRIIa R131
T5 sequence (looked up): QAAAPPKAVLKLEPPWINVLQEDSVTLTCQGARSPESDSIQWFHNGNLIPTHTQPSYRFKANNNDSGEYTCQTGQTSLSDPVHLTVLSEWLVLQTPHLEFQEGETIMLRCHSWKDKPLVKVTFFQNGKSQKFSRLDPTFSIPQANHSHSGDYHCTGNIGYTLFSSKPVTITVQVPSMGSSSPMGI
The experiment is described as above.
Description: as §1

T4 sequence (P08637 other isoform, or with tags, fused parts or gaps limits assumed): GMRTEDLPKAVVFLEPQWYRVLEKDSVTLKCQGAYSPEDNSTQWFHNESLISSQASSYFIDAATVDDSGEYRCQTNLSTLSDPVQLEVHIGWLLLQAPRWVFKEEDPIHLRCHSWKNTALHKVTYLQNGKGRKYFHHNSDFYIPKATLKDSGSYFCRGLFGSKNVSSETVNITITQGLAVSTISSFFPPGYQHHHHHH
T3 sequence (P08637 other isoform, or with tags, fused parts or gaps limits assumed): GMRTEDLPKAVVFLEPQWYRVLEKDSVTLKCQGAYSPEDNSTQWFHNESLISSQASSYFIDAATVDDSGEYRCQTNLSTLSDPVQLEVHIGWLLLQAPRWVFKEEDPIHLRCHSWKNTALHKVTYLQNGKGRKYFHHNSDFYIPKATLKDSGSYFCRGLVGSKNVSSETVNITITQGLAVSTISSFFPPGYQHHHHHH
T1 sequence (P02745 23-245, chain 1 of 3): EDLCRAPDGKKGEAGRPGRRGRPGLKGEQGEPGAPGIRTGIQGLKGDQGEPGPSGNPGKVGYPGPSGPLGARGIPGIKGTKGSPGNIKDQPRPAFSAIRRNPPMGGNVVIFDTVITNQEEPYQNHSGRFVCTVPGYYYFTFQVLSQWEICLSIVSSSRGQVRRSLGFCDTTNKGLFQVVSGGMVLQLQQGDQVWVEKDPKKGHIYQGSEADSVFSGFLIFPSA
T1 sequence (P02746 28-253, chain 2 of 3): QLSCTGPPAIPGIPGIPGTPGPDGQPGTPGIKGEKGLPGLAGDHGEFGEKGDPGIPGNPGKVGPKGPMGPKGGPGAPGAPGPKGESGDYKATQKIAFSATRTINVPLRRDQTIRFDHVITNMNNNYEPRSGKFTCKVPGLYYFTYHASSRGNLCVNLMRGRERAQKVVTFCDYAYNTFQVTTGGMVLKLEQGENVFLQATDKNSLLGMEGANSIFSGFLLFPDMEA
T1 sequence (P02747 29-245, chain 3 of 3): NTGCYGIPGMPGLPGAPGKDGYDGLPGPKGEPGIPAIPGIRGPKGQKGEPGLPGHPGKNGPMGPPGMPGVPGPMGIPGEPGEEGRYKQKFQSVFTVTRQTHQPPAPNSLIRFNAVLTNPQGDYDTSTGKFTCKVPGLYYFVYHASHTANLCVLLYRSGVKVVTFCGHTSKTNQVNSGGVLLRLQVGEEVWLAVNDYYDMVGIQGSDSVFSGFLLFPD

B1: HBC34-V35-MLNS-GAALIE (antibody, human IgG1, lambda)
heavy: ELQLVESGGGWVQPGGSQRLSCAASGRIFRSFYMSWVRQAPGKGLEWVATINQDGSEKLYVDSVKGRFTISRDNAKNSLFLQMNNLRVEDTAVYYCAAWSGNSGGMDVWGQGTTVSVSSASTKGPSVFPLAPSSKSTSGGTAALGCLVKDYFPEPVTVSWNSGALTSGVHTFPAVLQSSGLYSLSSVVTVPSSSLGTQTYICNVNHKPSNTKVDKKVEPKSCDKTHTCPPCPAPELLAGPSVFLFPPKPKDTLMISRTPEVTCVVVDVSHEDPEVKFNWYVDGVEVHNAKTKPREEQYNSTYRVVSVLTVLHQDWLNGKEYKCKVSNKALPLPEEKTISKAKGQPREPQVYTLPPSRDELTKNQVSLTCLVKGFYPSDIAVEWESNGQPENNYKTTPPVLDSDGSFFLYSKLTVDKSRWQQGNVFSCSVLHEALHSHYTQKSLSLSPGK
light: SYELTQPPSVSVSPGQTVSIPCSGDKLGNKNVAWFQHKPGQSPVLVIYEVKYRPSGIPERFSGSNSGNTATLTISGTQAMDEAAYFCQTFDSTTVVFGGGTRLTVLGQPKAAPSVTLFPPSSEELQANKATLVCLISDFYPGAVTVAWKADSSPVKAGVETTTPSKQSNNKYAASSYLSLTPEQWKSHRSYSCQVTHEGSTVEKTVAPTECS
For B1, the binding result in experiment [1] is on record as “no binding (tested: 3 µg/ml of purified human C1q)”; in experiment [2], “binds”; in experiment [3], “binds”; in experiment [4] it was “binds”; in experiment [5] it was “binds”.
